# In patent US20220354962A1 (University of Pennsylvania, published 2022):
# Where no end group is shown, it is not given here.
# Biological target: BSA (UniProt P02769 25-607)
# Test: photocrosslinking with TAMRA-tagged adapter, reducing SDS-PAGE, fluorescence image
binder,measurement,value
"LASIC Protein G adapter with C-terminal STEPL peptide (TAMRA; TAMRA-DBCO; FAM-Azide; Biotin), BPA position not stated (designed binder, also: BPA at unstated position, C-terminal Gly-Gly-Gly peptide carrying label (TAMRA, TAMRA-DBCO, FAM-azide or biotin), also called TAMRA dye-tagged LASIC adapter; TAMRA labeled Protein G adapter protein) MTFKLIINGKTLKGEITIEAVDAAEAEKIFKQYANDYGIDGEWTYDDATKTFTVTE",binding result,no binding
